test: soluble on expression in E. coli; label from the status in PepcDB or PDB records

Question: With “MGSDKIHHHHHHAEEKNLSEQWPVVASYQWAGQDSVVVCDLSLLKDTVDLPFSFFLKDFQIIKLDNRDEAMVGENNLCVSENYILVYGSVYELHPCRLFTKKGEFVTNIGAIGQGPGEYRAVYKAEIDEKHNCIYLMPFANSNAIYVYDLAGKPLRSIPLHQPVSKAVFKVDADKRELTVGALPFTGYPFVAWVQDFEGHLLDSVPAARHLSVLPDYSNEVMYGANTEVFDLYISTFFELRPDTLYHYIRSESRLKPRFTLNIGDRKRSITTFYELPQAYVGRLMVEEQVGDGMWETKSPSNFIVDKASLRGTFFRVINDFAGGMPDRLWTPWSLRNKQYIRLVEPGVLKAEIESYLSSTDGRKGKNRKKLQELCESIGEEDNSYVIYAKQKGVQ” as the sequence, how does the “soluble on expression in E. coli” value read?
Answer: The value was “not soluble”.

Question: Which “soluble on expression in E. coli” value does the source give for “MGSDKIHHHHHHMLHGKVLVAQGGGPTAVINQSMVGAVLESRKFRNVDLVYGAHHGVRGIVNEDFLDLTQETSHNLEMVAQTPSSGLGSTRDKPDLKYCHEIFEVLKAHGIAYFFYIGGNDSSDTVRIVSEEARKAGYPLRCIHIPKTIDNDLVLNDHTPGFPSAARFVAQAFMGVNLDNAALRGIYLAVVMGRHAGFLTAASALGKKFPEDGPHLIYIPERTFRVDSFLTDVKATYDKYGRCVVALSEGIHDEDGAPIITKLSKATEKDAHGNIQLSGTGALSDLLCEEIKGKLGIKRVRGDTFGYLQRSFIGCVSDVDQREAREVGEKAVQFAMWGDQDGSVTIQRTGFYSVDYKLLPLAAVAGKTRVMEDHFIAESGTDVTDSFRMYLRPLLGSGMPDAFRLRLNSVPRILKK” here?
Answer: Its value is “not soluble”.

Question: For “SPCKYSRSEVVLTFFERSPLDQVLKNDNVHKIQPSFQSPVKISEIMRSNGFCLANTETIVIDHSIPNGRDQQLGVDQTEHLFENGSEFPSELEDGDDPAAYVTNLSYYHLVPFETDIWD”, which “soluble on expression in E. coli” value is on record?
Answer: Its value is “soluble”.

Question: For “MKAQIIHSFGDSSVFQLEEVSKPKLLPGHVLIDVKATSVNPIDTKMRSGAVSAVAPEFPAILHGDVAGIVIEVGEGVSKFKCGDEVYGCAGGFKETGGALAEFMLADARLIAHKPNNITMEEAAALPLVAITAWESLFDRANIKSGQNVLIHGATGGVGHVAIQLAKWAGANVFTTASQQNKMEIAHRLGADVAINYKEESVQESVQEYVQKHTNGNGFEVIFDTVGGKNLDNSFEAAAVNGTVVTIAARSTHDLSPLHAKGLSLHVTFMALKILHTDKRNDCGEILTKITKIVEEGKLRPLLDSKSFTFDEVAQAHEYLESNKAIGKIVLKNVW”, which “soluble on expression in E. coli” value is on record?
Answer: The value was “soluble”.

Question: With “MDILVREVDVSEYVSIVVNRDSFNTIEYFICAPFSGQRLRGTARPGQTVVFRQQNLTNVVEKLGKNSFRCIVKADELPKSFQKSQEFVVARGRFQQFLKVAEGSRLSKLEPMSDTEMASNAIKDVREMAEQDLIGSRKTPFYEMFTRFAQQKVTSSDQEDTIENLHTRNNYEDIFDVLKSNLNKNEQLNDIDGRNNQKSDKMTEVDQTDKMHLTELEVKQKV” as the sequence, how does the “soluble on expression in E. coli” value read?
Answer: The value was “not soluble”.

Question: For “MATRGPTPDKARMGLPDRWLHCPKTGTLINNLFFPFKTPLCKMYDNQIAERRYQFHPAEVFSHPHLHGKKIGLWIDLTNTDRYYFREEVTEHECIYHKMKMAGRGVSPTQEDTDNFIKLVQEFHKKYPDRVVGVHCTHGFNRTGFLIAAYLFQVEEYGLDAAIGEFAENRQKGIYKQDYIDDLFARYDPTEDDKILAPEKPDWEREMSIGMSTQIDNGRPSTSQQIPATNGNNNQNGNQLSGGGDNSKLFMDGLIRGVKVCEDEGKKSMLQAKIKNLCKYNKQGFPGLQPVSLSRGNINLLEQESYMVSWKADGMRYIIYINDGDVYAFDRDNEVFEIENLDFVTKNGAPLMETLVDTEVIIDKVEINGAMCDQPRMLIYDIMRFNSVNVMKEPFYKRFEIIKTEIIDMRTAAFKTGRLKHENQIMSVRRKDFYDLEATAKLFGPKFVQHVGHEIDGLIFQPKKTKYETGRCDKVLKWKPPSHNSVDFLLKVEKKCKEGMLPEWIGYLFVQNLSDPFGTMKATATLKKYHNKIIECTLLVDNQGRPKEWKFMRERTDKSLPNGLRTAENVVETMVNPVTETYLIEYVNHALRVLKRAAAAHRHHQIHQQQLHEGEPEARRQKL”, which “soluble on expression in E. coli” value is on record?
Answer: Its value is “not soluble”.

Question: Which “soluble on expression in E. coli” value does the source give for “MSLQAKIKNKRVLVKFSGEALAGDNQFGIDIHVLDHIAKEIKSLVENDIEVGIVIGGGNIIRGVSAAQGGIIRRTSGDYMGMLATVINAVAMQEALEHIGLDTRVQSAIEIKEICESYIYRKAIRHLEKGRVVIFGAGTGNPFFTTDTAATLRAIEIGSDLIIKATKVDGIYDKDPNKFKDAKKLDTLSYNDALIGDIEVMDDTAISLAKDNKLPIVVCNMFKKGNLLQVIKHQQGVFSMVKEGHHHHHH” here?
Answer: Its value is “soluble”.

Question: Which “soluble on expression in E. coli” value does the source give for “MEAASIAVPGAGASLRAQALDALMTPAWADKLAAVAAIDAGAPVGAQQDLAEPAGLPGRPPAPQLVPPSQVRQRSVQSPEGRAALLHALAHIEFNAINLALDAVWRYGGLPDAYYLDWLKVAREEAYHFDLLNRHLSGLGHAYGDFPAHNGLWEMAEKTRADLLARLALVPRTLEARGLDASPLIRDKLAAAGDADGAAILEIILRDEIGHVAIGNHWYKALCAQRGLDPVAQYAQLASRYGAPRLRGPFNLEARRAAGFDEDELRALLQAKLAAALEHHHHHH” here?
Answer: The value was “soluble”.

Question: For “MPLSKRRAAGRINGLKGPPAKKRKEIERHEALLMHPLAYTAEQYEQVAEESKFYKNCFETTAAENVELLKSNDQLKKELELLKNQQGNQLKVDMKFKSQIESTRQSNMTLLREREIWQNRYYDVLAEKLALSARVKSMMGDIVESVEVPNDSNGNTWELREDLEIDRSARRKTEEEPKAQKMNSTRGSLPRNQCSTRSNNQTPNEMLLKMAIGLDTTSVN”, which “soluble on expression in E. coli” value is on record?
Answer: The value was “not soluble”.

Question: For “MAHHHHHHMADVSADSDAQVELERLNDVIDKYTCQVEHIDNLLQELEEENNSDSVSRQIAEYQSALESHPENIPAEDALEVITRLENTLKIVQRRNHLLEKENGTQNRLLEERSNVLLNATKTFDHIVDVTGWHDKFLFDAEDLRSKVADIREMSNIEAVVQKELRVAQGIIKKKEAALRQLEELVEQGKEQEAVLNNVYNDIRVKERDCSEVEMQLVRLRKSVAKTDEALAVFDLHNQNASLAYMESDRDYLRDSVAEMKSTTRRQDNVIKAQLTRQQQLQTRLDVIMKSLREMKLDKKYERNIPKSALVPSASREEPEDVSKILPESECIPVPTYRLLHKNNEMLRVIVMRKNMLVLEKNAVIEALEAGLAKYGSALITTYKEQQDLRQNKDMELIELMDDLQQQHSNYLEKLEELRLQNAALKKKMYRSTRQHAPLKGTRPMR”, which “soluble on expression in E. coli” value is on record?
Answer: The value was “not soluble”.

Question: With “GMSSNLHGIAIGIERSQDDFYLAFKAVGKLTHEDYEQMTPLLESALAGIKTPEIVALIDITELDGLSLHAAWDDLKLGLKHGKEFKRVAIIGQGELQEWATRVANWFTPGEFKFFEDKRDALDWLC” as the sequence, how does the “soluble on expression in E. coli” value read?
Answer: The value was “soluble”.

Question: With “MLEDDFGREVSGVRVSLTDRCNFDCVYCHNEGLGDTRGPMEAQDDELTADTIVAFLEVAAEFGVDSVKFTGGEPMLREDLEEIVRRAPDEMEVSMTTNGTFLPGRAPDLVDAGLERVNVSQDALDSEAFAELTQSGAYDRVLEGVEAALDAGLEPVKLNMVVFEPTAGYVPKMVDHVAENPGLQLQLIEYMPELAGHPEWAIDIDRVHDWLEDRADKVEHREMHDRKRYWMHSGEAAVEGDSASTSLAASDGGIRTEPVNNHNSGMVEIVDPVGNENFCANCHRVRLTHDGYLKGCLNRNDDLRDIGTTKESMRAAFRETVDTRVPYYGEYMIETEDGEWEINEEYIDTDGDRAPYEYSE” as the sequence, how does the “soluble on expression in E. coli” value read?
Answer: The value was “not soluble”.

Question: With “MSATTKELGNSLWDSLFGTPGVQLTDDDIQNMPYASQYMQLNGGPQLFVVLAFAEDGQQKWVTQDQATLVTQHGRLVKTLLGGDNLIEVNNLAADPLIKPAQIVDGASWTRTMGWTEYQQVRYATARSVFKWDGTDTVKVGSDETPVRVLDEEVSTDQARWHNRYWIDSEGQIRQSEQYLGADYFPVKTTLIKAAKQLEHHHHHH” as the sequence, how does the “soluble on expression in E. coli” value read?
Answer: The value was “soluble”.

Question: With “MSLVENLFLEPQSKRRKINPETIESPSPNCNHWFVRNKICISCYTTVDNFEGRSFDYLYKGMQMSNEALGFTKGLISQTSWLEDKKLHLVLDLDQTLIHTIKTSLLYESEKYIIEEVESRKDIKRFNTGFPEESLIKLRPFVHQFLKECNEMFSMYVYTKGGYDYARLVLEMIDPDKFYFGNRVITRRESPGFKTLDLVLADERGIVIVDDTSSVWPHDKKNLLQIARYKYFGDKSCLFSEDKKKIDESDEKGPLNTALRFLKDVHEEFFYDWSKKDLDSVDVRPLLKEISLRWKRKADGVV” as the sequence, how does the “soluble on expression in E. coli” value read?
Answer: Its value is “soluble”.

Question: For “GPGSMSSSNAQAELGPGGSTHSIELGRLIFQGAESKVYCCSFYGALALCKHRFVKRYRDPSLDERLRTQRTRREARALERCVKKGIRAPRLLGADYINTFLVMSYEAGPTVKEALDIEHAAYMQQVSKGKSTSAQQQQPQTTPSPSALGNAAPSPVTAALLQSIGVVVARLHNANIVHGDLTTSNFICTCDGLEAAAPGADGADALASSSPVLPTAEDIVVLDFGLISEKYSTEERAVDLYVLERAIASTHPYLSSFASDIILEGYRSAADPKKGEEALRRLEAVRARGRKRTMIG”, which “soluble on expression in E. coli” value is on record?
Answer: Its value is “not soluble”.

Question: For “SNASAFTEGTDYMVLEKPIPNADKTLIKVFSYACPFCYKYDKAVTGPVSDKVADLVTFTPFHLETKGEYGKQASEVFAVLIAKDKAAGISLFDAKSQFKKAKFAWYAAYHDKKERWSDGKDPAAFIKTGLDAAGMSQADFEAALKDPAVQETLEKWKAAYDVAKIQGVPAYVVNGKYLIYTKNIKSIDSMAELVRELATKK”, which “soluble on expression in E. coli” value is on record?
Answer: Its value is “soluble”.

Question: Which “soluble on expression in E. coli” value does the source give for “MSLFSDVAETSSFVFAVAGADDEVVLETIRLALKQKLGKFLLFGKKEDKTLTANESVTWIQTDTAEAAAQGAILAVKNKEADILVKGFIPTATLMHHVLKKENGLRTDQLLSQIAIFDIPTYHKPLLITDCAMNVAPKTKEKIAITENALAVAHQIGITNPKIALLSAVEEVTAKMPSTLEAQEVVQHFGNQISVSGPLALDVAISKEAALHKGITDSSAGEADILIAPNIETGNALYKSLVYFAGAKVGSAVVGAKVPIVISSRNDSPENKLASFILTVRLVEKEGHHHHHH” here?
Answer: The value was “soluble”.

Question: For “MATTKLSATKSTSRAINYAEKRAVEKSGLNCDVDYAKSSFKAARELYGKTDGNQGHVIIQSFQPGEVTPEQCNQLGLALAEKLVPNHQVAVYTHADTNHVHNHIVLNSIDLNTGKKFNNNKQALRDVRAFNDEVCRAQGLSVPEKDTARLRYTQTEKAIADPNTTSTAQYSWKDDIREAIDQSTATNMEEFQKHLNQHGITIERVTPKSITYRHLAENKKVRGRKLGEDYNKGGIQHGFERQIQRRQQQKHKSDTNFQPKRSTSNRHESTERDTGVTQSDWDQFAQDTNELERRRQAAESARLVDEKARRDREKRVREKPTSRPIINIDRDHGLEL”, which “soluble on expression in E. coli” value is on record?
Answer: Its value is “not soluble”.

Question: For “GMTRQRIAIDMDEVLADTLGAVVKAVNERADLNIKMESLNGKKLKHMIPEHEGLVMDILKEPGFFRNLDVMPHAQEVVKQLNEHYDIYIATAAMDVPTSFHDKYEWLLEYFPFLDPQHFVFCGRKNIILADYLIDDNPKQLEIFEGKSIMFTASHNVYEHRFERVSGWRDVKNYFNSIEK”, which “soluble on expression in E. coli” value is on record?
Answer: Its value is “soluble”.

Question: With “MAHHHHHHMATTSSPAASETAVRTVWFDAIDATAAMISTDPLQPAAEYTADSYLPPLSLAGDQADFFAQLRELDRGFIEAAPSLFLPQMTLEEACHAKPSFYQTFLGEREITETTFQPLLLKQRDEAEQEADGSAMNGRHGARRRRQEAPVLPRGTAPLYGGFLGQEAMSPSTAVQRKPDFMPIILVPSAATAPLQLMNIKQFLEHGAYVDPATLYVDRETGVVNIRDSKPRSVIVKPGSFHDPHKYHVAFRQFRVVDDQDEVDDWSHVCGCIVEGKLWQLKGWYPHEQPQSRDPSRLFSRIRAFLAYFEEDKVPPQCREWNVQSLALTRNLLKDQVHIALASKFWEQLYTFLDEHPMFSRYTIPLTDERL” as the sequence, how does the “soluble on expression in E. coli” value read?
Answer: Its value is “soluble”.
